For the data set, the system named is CC(C)=CCC/C(C)=C/CC/C(C)=C/CO[P@@](=O)(O)OP(=O)(O)O. The data set can be described thus: purified protein. The settings on record: 5 mM MgCl2, pH 7.0, 30 °C, inorganic pyrophosphatase coupled.

Sequence of (E)-β-farnesene synthase (BFS), A. annua BFS (Artemisia annua) (chain, as listed by the source): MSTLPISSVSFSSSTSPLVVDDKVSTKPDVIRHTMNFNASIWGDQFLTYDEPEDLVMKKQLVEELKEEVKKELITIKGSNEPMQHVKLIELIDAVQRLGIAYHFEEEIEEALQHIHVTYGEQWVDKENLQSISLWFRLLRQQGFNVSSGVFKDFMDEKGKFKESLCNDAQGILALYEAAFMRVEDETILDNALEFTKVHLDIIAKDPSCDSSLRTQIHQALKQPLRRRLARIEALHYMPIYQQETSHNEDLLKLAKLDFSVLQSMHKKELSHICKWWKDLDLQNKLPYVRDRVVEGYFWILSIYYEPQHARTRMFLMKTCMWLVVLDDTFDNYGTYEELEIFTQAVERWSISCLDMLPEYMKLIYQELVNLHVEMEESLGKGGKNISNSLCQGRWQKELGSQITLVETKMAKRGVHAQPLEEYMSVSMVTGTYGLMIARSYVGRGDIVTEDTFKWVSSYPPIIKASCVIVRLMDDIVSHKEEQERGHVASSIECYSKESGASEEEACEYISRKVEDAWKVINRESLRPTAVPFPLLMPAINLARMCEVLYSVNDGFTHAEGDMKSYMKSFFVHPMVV

As to “(E)-β-farnesene synthase (BFS), A. annua BFS (Artemisia annua)”, the Km (as a rule, the substrate concentration at which the rate is half of its maximum) is 16.19 µM; the catalytic constant (kcat) (usually the number of substrate molecules converted per active site and unit of time at saturation) was found to be 0.17 s⁻¹; the kcat/Km (commonly the turnover number divided by the Michaelis constant) was determined as 10500 M⁻¹ s⁻¹.

These data come from article PMC4327562, “Emergence of terpene cyclization in Artemisia annua” (Nature Communications, 2015).
